Laboratory results taken from PMC10688271, “Molecular details of the CPSF73-CPSF100 C-terminal heterodimer and interaction with Symplekin”.

Biological target: T1, ec73-CTD12;ec100-CTD12 (Encephalitozoon …, UniProt Q8SUE4;M1JIZ1 452-567;525-639, |)
T1 sequence 1: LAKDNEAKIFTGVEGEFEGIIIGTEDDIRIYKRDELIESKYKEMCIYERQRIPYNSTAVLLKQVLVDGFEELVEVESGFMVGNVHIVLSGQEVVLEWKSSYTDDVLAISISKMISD
T1 sequence 2: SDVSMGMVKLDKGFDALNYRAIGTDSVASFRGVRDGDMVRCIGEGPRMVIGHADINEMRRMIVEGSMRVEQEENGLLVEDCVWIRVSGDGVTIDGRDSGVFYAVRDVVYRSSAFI
Test: EMSA; 50 uM protein, 500 nM nucleic acid; NMR also negative (NMR ligands not specified); EMSA: 20 mM Tris pH 7.5, 150 mM potassium acetate, 1 mM EDTA, 10% glycerol; 30 min incubation; 10% Tris-glycine gel (running buffer 27 mM Tris, 192 mM glycine)
Conditions: protein: recombinant;recombinant, copies: 1;1

[1] = label: 3' Cy3 on forward strand, blunt

B1: dsDNA-Cy3 (dsDNA)
DNA 1: AGGGTCTCCATTTTGAAGCATGC
DNA 2: GCATGCTTCAAAATGGAGACCCT
Does B1 bind [1]?
Result: no binding

Does AGGGTCTCCATTTTGAAGCATGC (ssDNA) [ssDNA-Cy3] bind (label: 3' Cy3, single strand)?
Result: no binding

B2: dsRNA-Cy3 (dsRNA)
RNA 1: AGGGUCUCCAUUUUGAAGCAUGC
RNA 2: GCAUGCUUCAAAAUGGAGACCCU
Does B2 bind [1]?
Result: no binding

Does AGGGUCUCCAUUUUGAAGCAUGC (ssRNA) [ssRNA-Cy3] bind (label: 3' Cy3, single strand)?
Result: no binding
